The source of these data is paper PMC9973331, “DNA Methylation and RNA-DNA Hybrids Regulate the Single-Molecule Localization of a DNA Methyltransferase on the Bacterial Nucleoid”.

In series [1] the target is T1, DnmA[6AA*] (Bacillus subtilis, UniProt O31504 1-879, K470A;M620A;N748A;L780A;K781A;D783A).
T1 sequence: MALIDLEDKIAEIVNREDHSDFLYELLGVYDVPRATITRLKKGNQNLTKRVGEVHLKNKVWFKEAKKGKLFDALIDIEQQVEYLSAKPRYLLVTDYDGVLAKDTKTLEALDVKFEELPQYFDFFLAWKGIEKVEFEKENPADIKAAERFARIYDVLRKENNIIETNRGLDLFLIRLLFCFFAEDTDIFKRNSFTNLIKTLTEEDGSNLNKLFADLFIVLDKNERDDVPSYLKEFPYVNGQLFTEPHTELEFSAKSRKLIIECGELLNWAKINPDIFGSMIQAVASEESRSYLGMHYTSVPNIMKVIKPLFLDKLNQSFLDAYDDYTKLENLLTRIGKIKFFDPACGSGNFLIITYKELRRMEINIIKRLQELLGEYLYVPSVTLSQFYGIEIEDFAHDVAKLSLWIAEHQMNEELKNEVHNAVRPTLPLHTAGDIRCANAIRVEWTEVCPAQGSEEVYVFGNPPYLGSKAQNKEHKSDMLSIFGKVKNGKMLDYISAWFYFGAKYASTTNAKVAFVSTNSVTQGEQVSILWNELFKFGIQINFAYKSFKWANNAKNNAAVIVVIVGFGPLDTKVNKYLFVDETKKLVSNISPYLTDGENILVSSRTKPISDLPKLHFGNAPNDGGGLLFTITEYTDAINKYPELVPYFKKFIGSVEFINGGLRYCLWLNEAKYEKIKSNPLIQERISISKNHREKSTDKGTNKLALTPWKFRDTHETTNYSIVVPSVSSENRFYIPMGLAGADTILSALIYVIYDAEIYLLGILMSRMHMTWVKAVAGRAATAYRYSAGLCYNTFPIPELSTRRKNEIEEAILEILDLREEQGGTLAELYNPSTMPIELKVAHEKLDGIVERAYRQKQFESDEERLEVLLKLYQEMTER
The experiment in a line: EMSA; EMSA: 5x buffer 500 mM Tris-HCl pH 8, 1.25 M NaCl, 10% glycerol (1x: 100 mM Tris, 250 mM NaCl, 2% glycerol), 5 nM probe, 30 min at 25 C; 6% native PAGE in 1x TBE on ice. The conditions noted are these: protein: recombinant; tags: His-SUMO tag (pE-SUMO) removed by SUMO protease; label: 5' IRDye700 on strand 1; 5' IRDye800 on strand 2; blunt. A general note: In EMSA bound probe runs differently from free probe, usually more slowly.

Series [2] deals with T2, DnmA[Y465A] (Bacillus subtilis, UniProt O31504 1-879, Y465A).
T2 sequence: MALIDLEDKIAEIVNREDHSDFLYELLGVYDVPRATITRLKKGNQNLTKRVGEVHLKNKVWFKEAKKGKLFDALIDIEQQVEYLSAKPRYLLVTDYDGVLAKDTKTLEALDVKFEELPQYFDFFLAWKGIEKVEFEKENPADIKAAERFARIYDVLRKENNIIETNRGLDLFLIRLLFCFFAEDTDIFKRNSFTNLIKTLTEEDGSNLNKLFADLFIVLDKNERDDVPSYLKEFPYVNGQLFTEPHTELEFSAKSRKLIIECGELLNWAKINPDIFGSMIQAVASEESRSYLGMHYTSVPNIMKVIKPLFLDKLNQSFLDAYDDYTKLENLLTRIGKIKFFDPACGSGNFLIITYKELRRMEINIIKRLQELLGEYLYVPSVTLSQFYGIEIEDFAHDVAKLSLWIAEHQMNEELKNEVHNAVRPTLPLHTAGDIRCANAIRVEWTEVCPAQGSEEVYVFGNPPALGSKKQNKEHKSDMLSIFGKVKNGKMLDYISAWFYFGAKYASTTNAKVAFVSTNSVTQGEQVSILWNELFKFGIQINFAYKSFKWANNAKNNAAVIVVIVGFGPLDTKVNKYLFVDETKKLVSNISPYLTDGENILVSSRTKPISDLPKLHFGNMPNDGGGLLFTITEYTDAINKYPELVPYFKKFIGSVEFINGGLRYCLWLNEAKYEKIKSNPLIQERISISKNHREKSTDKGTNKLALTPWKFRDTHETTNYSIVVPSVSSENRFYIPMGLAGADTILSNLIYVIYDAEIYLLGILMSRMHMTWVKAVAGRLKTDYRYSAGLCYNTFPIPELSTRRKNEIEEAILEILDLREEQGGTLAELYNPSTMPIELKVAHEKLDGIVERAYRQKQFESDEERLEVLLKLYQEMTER
Described as above. As to conditions: protein: recombinant; tags: His-SUMO tag (pE-SUMO) removed by SUMO protease; label: 5' IRDye700 on strand 1; 5' IRDye800 on strand 2; blunt.

B1: unmethylated dsDNA (oTMN67/oTMN68) (dsDNA)
DNA 1: CAAAACAGGATATGAAATAGTATTGGACGAGAGCTTTTTGGTGGCTTATACTATAG
DNA 2: CTATAGTATAAGCCACCAAAAAGCTCTCGTCCAATACTATTTCATATCCTGTTTTG
In the case of B1, the “apparent K (half saturation)” value in series [1] was found to be 458 ± 185 nM; in series [2], 164 ± 26.8 nM.
